Assay results: paper PMC10397247
Like-named read-outs stand apart in the source and are kept apart here. Each block holds one binder with its values, some of them ahead of it.

Key:
Test in all cases: two-hybrid library CCmax;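 also: natural log of median RNA to DNA barcode read ratio; higher means stronger binding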
[1] = biological target: T1, 4H1513-AA
T1 chain: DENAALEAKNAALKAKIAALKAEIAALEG

[2] = biological target: T2, 4H1594-AA; conditions: mean of both orientations
T2 chain: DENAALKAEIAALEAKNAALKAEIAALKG

[3] = biological target: T3, 4H1629-AA; conditions: mean of both orientations
T3 chain: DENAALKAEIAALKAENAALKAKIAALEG

[4] = biological target: T4, 4H1845-AA; conditions: mean of both orientations
T4 chain: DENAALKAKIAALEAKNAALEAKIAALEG

[5] = biological target: T5, 4H1874-AA; conditions: mean of both orientations
T5 chain: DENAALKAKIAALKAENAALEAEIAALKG

[6] = biological target: T6, 4H2198-AA; conditions: mean of both orientations
T6 chain: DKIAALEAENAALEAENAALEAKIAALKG

[7] = biological target: T7, 4H2553-AA; conditions: mean of both orientations
T7 chain: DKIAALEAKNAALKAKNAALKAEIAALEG

[8] = biological target: T8, 4H2611-AA
T8 chain: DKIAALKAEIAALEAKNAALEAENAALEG

[9] = biological target: T9, 4H2620-AA; conditions: mean of both orientations
T9 chain: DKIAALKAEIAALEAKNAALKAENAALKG

[10] = biological target: T10, 4H2648-AA; conditions: mean of both orientations
T10 chain: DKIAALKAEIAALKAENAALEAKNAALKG

[11] = biological target: T11, 4H2907-AA; conditions: mean of both orientations
T11 chain: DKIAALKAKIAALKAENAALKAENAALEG

[12] = biological target: T12, 4H2944-AA
T12 chain: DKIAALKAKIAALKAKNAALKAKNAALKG

[13] = biological target: T13, 4H3056-AA; conditions: mean of both orientations
T13 chain: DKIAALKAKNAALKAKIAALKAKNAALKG

[14] = biological target: T14, 4H3133-AA; conditions: mean of both orientations
T14 chain: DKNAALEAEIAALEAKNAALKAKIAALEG

[15] = biological target: T15, 4H3162-AA; conditions: mean of both orientations
T15 chain: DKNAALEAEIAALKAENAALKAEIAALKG

[16] = biological target: T16, 4H32-AA; conditions: mean of both orientations
T16 chain: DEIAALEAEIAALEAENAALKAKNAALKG

[17] = biological target: T17, 4H3378-AA; conditions: mean of both orientations
T17 chain: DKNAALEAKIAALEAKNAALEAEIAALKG

[18] = biological target: T18, 4H340-AA; conditions: mean of both orientations
T18 chain: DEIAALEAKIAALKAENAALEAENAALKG

[19] = biological target: T19, 4H3413-AA; conditions: mean of both orientations
T19 chain: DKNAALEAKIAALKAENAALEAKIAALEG

[20] = biological target: T20, 4H3588-AA; conditions: mean of both orientations
T20 chain: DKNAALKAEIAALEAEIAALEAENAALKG

[21] = biological target: T21, 4H3606-AA; conditions: mean of both orientations
T21 chain: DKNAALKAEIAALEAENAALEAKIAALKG

[22] = biological target: T22, 4H3627-AA
T22 chain: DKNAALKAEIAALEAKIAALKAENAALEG

[23] = biological target: T23, 4H3631-AA; conditions: mean of both orientations
T23 chain: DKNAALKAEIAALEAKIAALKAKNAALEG

[24] = biological target: T24, 4H3697-AA; conditions: mean of both orientations
T24 chain: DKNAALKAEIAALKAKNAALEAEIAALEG

[25] = biological target: T25, 4H3718-AA
T25 chain: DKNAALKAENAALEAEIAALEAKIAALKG

[26] = biological target: T26, 4H384-AA; conditions: mean of both orientations
T26 chain: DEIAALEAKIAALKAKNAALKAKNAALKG

[27] = biological target: T27, 4H3865-AA; conditions: mean of both orientations
T27 chain: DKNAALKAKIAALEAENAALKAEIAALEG

[28] = biological target: T28, 4H697-AA; conditions: mean of both orientations
T28 chain: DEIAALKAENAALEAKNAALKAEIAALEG

[29] = biological target: T29, 4H982-AA; conditions: mean of both orientations
T29 chain: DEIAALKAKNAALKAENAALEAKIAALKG

[30] = biological target: T30, Q3-AA; conditions: mean of both orientations
T30 chain: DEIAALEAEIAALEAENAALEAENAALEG

[31] = biological target: T31, Q7-AA; conditions: mean of both orientations
T31 chain: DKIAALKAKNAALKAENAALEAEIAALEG

[32] = biological target: T32, Q8-AA; conditions: mean of both orientations
T32 chain: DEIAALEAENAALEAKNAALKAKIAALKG

[33] = biological target: T33, 4H3655-AA; conditions: mean of both orientations
T33 chain: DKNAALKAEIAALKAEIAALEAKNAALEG

[34] = biological target: T34, 4H3844-AA; conditions: mean of both orientations
T34 chain: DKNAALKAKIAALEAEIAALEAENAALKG

[35] = biological target: T35, 4H3921-AA; conditions: mean of both orientations
T35 chain: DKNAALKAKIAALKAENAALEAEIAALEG

[36] = biological target: T36, 4H429-AA; conditions: mean of both orientations
T36 chain: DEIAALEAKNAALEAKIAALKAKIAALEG

[37] = biological target: T37, 4H454-AA; conditions: mean of both orientations
T37 chain: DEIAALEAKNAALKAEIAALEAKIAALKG

[38] = biological target: T38, 4H48-AA
T38 chain: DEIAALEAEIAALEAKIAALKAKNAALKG

[39] = biological target: T39, 4H566-AA; conditions: mean of both orientations
T39 chain: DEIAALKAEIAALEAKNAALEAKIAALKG

[40] = biological target: T40, 4H605-AA; conditions: mean of both orientations
T40 chain: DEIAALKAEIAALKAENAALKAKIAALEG

[41] = biological target: T41, 4H678-AA; conditions: mean of both orientations
T41 chain: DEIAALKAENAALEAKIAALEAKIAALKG

[42] = biological target: T42, 4H717-AA; conditions: mean of both orientations
T42 chain: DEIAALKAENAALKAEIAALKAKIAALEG

[43] = biological target: T43, 4H780-AA; conditions: mean of both orientations
T43 chain: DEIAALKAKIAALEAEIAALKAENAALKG

[44] = biological target: T44, 4H794-AA; conditions: mean of both orientations
T44 chain: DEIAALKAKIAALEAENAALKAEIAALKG

[45] = biological target: T45, 4H881-AA; conditions: mean of both orientations
T45 chain: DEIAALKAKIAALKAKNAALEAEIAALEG

[46] = biological target: T46, 4H906-AA; conditions: mean of both orientations
T46 chain: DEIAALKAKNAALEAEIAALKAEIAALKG

[47] = biological target: T47, 4H993-AA; conditions: mean of both orientations
T47 chain: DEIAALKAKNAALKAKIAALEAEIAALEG

[48] = biological target: T48, 4H2949-AA; conditions: mean of both orientations
T48 chain: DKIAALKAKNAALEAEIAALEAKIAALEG

[49] = biological target: T49, 4H3112-AA; conditions: mean of both orientations
T49 chain: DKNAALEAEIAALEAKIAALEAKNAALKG

[50] = biological target: T50, 4H317-AA; conditions: mean of both orientations
T50 chain: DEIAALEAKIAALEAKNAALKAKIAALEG

[51] = biological target: T51, 4H3343-AA; conditions: mean of both orientations
T51 chain: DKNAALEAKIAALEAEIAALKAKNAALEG

[52] = biological target: T52, 4H335-AA; conditions: mean of both orientations
T52 chain: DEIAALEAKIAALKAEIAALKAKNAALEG

[53] = biological target: T53, 4H342-AA; conditions: mean of both orientations
T53 chain: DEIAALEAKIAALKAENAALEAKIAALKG

[54] = biological target: T54, 4H3427-AA; conditions: mean of both orientations
T54 chain: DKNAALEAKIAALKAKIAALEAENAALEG

interaction score [25]: -0.586
interaction score [26]: 0.145
interaction score [27]: -1.49
interaction score [28]: -0.465
interaction score [29]: -1.15
interaction score [30]: -1.46
interaction score [31]: -0.973
interaction score [32]: 1.05
Binder: DKNAALKAENAALEAEIAALEAKIAALKG [4H3718-AA]

interaction score [22]: 0.53
interaction score [33]: -0.0982
interaction score ([25]; mean of both orientations): -0.468
interaction score [34]: 1.03
interaction score [35]: -1.63
interaction score [36]: -1.09
interaction score [37]: 0.554
interaction score ([38]; mean of both orientations): -0.478
interaction score [39]: -0.771
interaction score [40]: -1.4
interaction score [41]: -1.31
interaction score [42]: -1.79
interaction score [43]: -1
interaction score [44]: -1.93
interaction score [45]: -1.04
interaction score [46]: -1.34
interaction score [47]: -1.08
interaction score [30]: -1.24
interaction score [31]: -1.97
interaction score [32]: -0.702
Binder: DKNAALKAEIAALEAKIAALKAENAALEG [4H3627-AA]

The remaining lines, values behind:

Binder: DENAALEAKNAALKAKIAALKAEIAALEG [4H1513-AA]
interaction score [1]: -1.35
interaction score [2]: -1.55
interaction score [3]: -1.62
interaction score [4]: -1.62
interaction score [5]: -1.02
interaction score [6]: 1.63
interaction score [7]: -1.64
interaction score [8]: -1.21
interaction score [9]: -1.68
interaction score [10]: -1.14
interaction score [11]: -1.65
interaction score ([12]; mean of both orientations): -1.86
interaction score [13]: -1.71
interaction score [14]: -1.2
interaction score [15]: -1.99
interaction score [16]: -0.712
interaction score [17]: -1.77
interaction score [18]: -1.57
interaction score [19]: -1.28
interaction score [20]: -0.131
interaction score [21]: 0.638
interaction score ([22]; mean of both orientations): -0.0527
interaction score [23]: 0.267
interaction score [24]: -2.13
interaction score ([25]; mean of both orientations): 1.82
interaction score [26]: -1.22
interaction score [27]: -1.9
interaction score [28]: -1.68
interaction score [29]: -1
interaction score [30]: -1.16
interaction score [31]: -0.188
interaction score [32]: -1.06

Binder: DKIAALKAKIAALKAKNAALKAKNAALKG [4H2944-AA]
interaction score [12]: -1.62
interaction score [48]: -1.55
interaction score [49]: -0.15
interaction score [50]: -1.04
interaction score [51]: -1.17
interaction score [52]: -1.7
interaction score [53]: 1.12
interaction score [54]: -0.0703
interaction score [21]: -0.0316
interaction score ([22]; mean of both orientations): -0.579
interaction score [33]: -0.297
interaction score ([25]; mean of both orientations): -0.87
interaction score [34]: 0.407
interaction score [35]: -0.731
interaction score [36]: -1.71
interaction score [37]: -1.8
interaction score [38]: -1.33
interaction score [39]: 0.106
interaction score [40]: -1.34
interaction score [41]: -1.67
interaction score [42]: -1.69
interaction score [43]: -1.43
interaction score [44]: -1.89
interaction score [45]: -0.992
interaction score [46]: -1.83
interaction score [47]: -2.01
interaction score [30]: 1.67
interaction score [31]: -1.77
interaction score [32]: -1.55
